Test results from patent publication US9512196B2, “Short-form human MD-2 as a negative regulator of toll-like receptor 4 signaling” (Cedars-Sinai Medical Center, priority 2008, dated 2016).

Columns and labels:
[1] = biological target: T1, TLR4 (Homo sapiens, UniProt O00206); experiment: NF-κB luciferase reporter in HEK293 cells expressing TLR4, LPS stimulation; assay type: cell-based; conditions: for LPS-dependent NF-κB activation conferred by soluble protein: culture supernatants added to HEK293 cells stably transfected with TLR4 and NF-κB luciferase reporter; for LPS-mediated NF-κB activation on transient expression: plasmid transfected with CD14 into HEK293 TLR4/NF-κB reporter cells, LPS 250 ng/ml 6 h
T1 construct: expressed in transfected cells; host or cells: HEK293
Description: (§1) (A) HEK-293 cells stably transfected with TLR4 and a NF-κB reporter gene were treated with supernatants containing either MD-2 or MD-2s as described in the examples herein. Cells were left untreated or stimulated with LPS for 24 h. Mean relative stimulation of luciferase activity±S.D. for a representative experiment, each performed in triplicate, is shown. (B) HEK-293 cells stably transfected with TLR4 and a NF-κB reporter gene were transiently transfected with plasmids encoding for either MD-2, MD-2s or CD14 as shown. 24 h later, cells were left untreated or stimulated with LPS (250 ng/ml) for 6 h. Mean relative stimulation of luciferase activity±SD for a representative experiment, each performed in triplicate, is shown. (C) and (D) Supernatants were also collected and measured for IL-8 secretion.
(A) HEK293 cells were transiently transfected with plasmids encoding TLR4 and a NF-κB reporter gene in combination with MD-2 and MD-2s as indicated. 24 h later, cells were left untreated or incubated with LPS (250 ng/ml) for 5 h. Mean relative stimulation of luciferase activity±S.D. for a representative experiment from three separate experiments, each performed in triplicate, is shown. (B) HEK-293 cells stably transfected with TLR4 and a NF-κB reporter gene were treated with supernatants containing either MD-2 and MD-2s as depicted and left untreated or incubated with LPS for 24 h. Mean relative stimulation of luciferase activity±S.D. for a representative experiment from three separate experiments, each performed in triplicate, is shown.
HEK293 cells were transiently transfected with the expression vectors noted in combination with constructs encoding the NF-κB- and IL-8-luciferase reporter gene, and either the β-galactosidase gene or the phRL-TK report gene to normalize for transfection efficiency. In all cases, total DNA concentration was kept constant by supplementation with empty vector control. Following overnight incubation, cells were stimulated for 6 hours with 50 ng/ml LPS and then lysed, and luciferase activity was measured as described previously (Ohta et al. (2004) BIOCHEM BIOPHYS RES COMMUN 323, 1103-1108). Data are shown as mean±SD of three or more independent experiments and are reported as a percentage of LPS-stimulated NF-κB and IL-8 promoter activity, or relative luciferase activity.
(§2) The requirement for MD-2s in LPS mediated NF-κB activation was assessed. It has been shown that the soluble form of wild-type MD-2 confers LPS responsiveness to cells expressing TLR4; therefore, it was investigated if soluble MD-2s was also bioactive. Culture supernatants were obtained from HEK293 cells transiently expressing control vector, MD-2, or MD-2s, and incubated with HEK293 cells stably transfected with TLR4 and an NF-κB-dependent luciferase reporter gene.
MD-2s was tested to see if it needed to be transiently expressed in TLR4 reporter cells in order to mediate NF-κB activation following LPS stimulation. HEK293 cells stably transfected with TLR4 and an NF-κB-dependent luciferase reporter gene were transiently transfected with plasmids encoding CD14 in combination with either MD-2 or MD-2s, and subsequently treated with LPS.
HEK293 cells were transiently transfected with plasmids encoding CD14, TLR4, and wild-type MD-2 in conjunction with a plasmid encoding the NF-κB-dependent luciferase reporter gene in the presence or absence of a plasmid encoding MD-2s. […] Furthermore, we assessed the inhibitory role of soluble MD-2s following LPS stimulation. HEK293 cells stably transfected with TLR4 and an NF-κB-dependent luciferase reporter gene were incubated with supernatants obtained from HEK293 cells transiently expressing a constant amount of MD-2 with increasing concentrations of MD-2s.

[2] = biological target: T1, TLR4; experiment: IL-8 secretion by HEK293 TLR4 reporter cells after LPS; assay type: cell-based
Description: as §1
as §2, with “gene. […]” for “gene.”

[3] = biological target: T1, TLR4; experiment: Confocal co-localization with CFP-tagged TLR4 in HEK293 cells; assay type: cell-based; conditions: confocal analysis, anti-Myc staining
Description: (A) Cells stably expressing CFP-tagged TLR4 were transiently transfected with plasmids encoding wild-type MD-2 (upper panels) or MD-2s (lower panels). 24 h later, cells were incubated with an anti-Myc antibody and cross-liked with Alexa 647-conjugated anti-mouse polyclonal secondary antibody. (B) HEK293 cells were transiently transfected with a plasmid encoding for Flag-tagged TLR4 (lane 2) and cotransfected with either a Myc-tagged MD-2 (lane 3) or a Myc-tagged MD-2s (lanes 1 and 4) expressing plasmid. Co-immunoprecipitation experiments were then performed using an anti-Flag antibody (lanes 2-4) or an IgG isotype control antibody (lane 1). Samples were fractionated by SDS-PAGE and immunoblotting with an anti-Myc antibody was performed. Experiment shown is representative of 4 separate experiments.
To address this possibility, co-localization studies to examine the cellular distribution of MD-2s with respect to TLR4 were performed. HEK293 cells stably expressing TLR4CFP were subsequently transiently transfected with a plasmid encoding either MD-2 (FIG. 4A, upper panel) or MD-2s (FIG. 4A, lower panel) and stained with an anti-Myc antibody. […] Next whether MD-2s is physically associated with TLR4 was assessed. […]

[4] = test system: lung inflammation induced by LPS; experiment: LPS-induced lung inflammation in mice after in vivo plasmid transfection; set-up: species or system mouse
Description: (A) MD-2s expression can be detected following in vivo transfection. RNA was isolated from lung tissue of wild-type mice at 48 h post in vivo transfection with control vector (lane 1), Myc-MD2 (lane 2) or a plasmid encoding MycMD-2s (lane 3) and reverse transcribed into cDNA. RT-PCR using human MD-2-specific primers (lanes 1-3) or murine GAPDH primers (lanes 4-6), was then performed. (B-E) Wild-type mice were transfected with control vector (EV, open bars) or a plasmid encoding MD-2s (black bars) 48 h before being challenged intratracheally with PBS or 10 μg of LPS, for 24 h. MD-2s expression reduced (B) IL-6 concentration in bronchoalveolar lavage fluid (BALF), (C) KC concentration in the lung homogenate, and (D) recruitment of polymorphonuclear leukocytes (PMN) into the lung.

[5] = plasmid encoding MD-2s 48 h before 10 μg LPS intratracheally, 24 h, vs control vector

T1 sequence (O00206 24-839): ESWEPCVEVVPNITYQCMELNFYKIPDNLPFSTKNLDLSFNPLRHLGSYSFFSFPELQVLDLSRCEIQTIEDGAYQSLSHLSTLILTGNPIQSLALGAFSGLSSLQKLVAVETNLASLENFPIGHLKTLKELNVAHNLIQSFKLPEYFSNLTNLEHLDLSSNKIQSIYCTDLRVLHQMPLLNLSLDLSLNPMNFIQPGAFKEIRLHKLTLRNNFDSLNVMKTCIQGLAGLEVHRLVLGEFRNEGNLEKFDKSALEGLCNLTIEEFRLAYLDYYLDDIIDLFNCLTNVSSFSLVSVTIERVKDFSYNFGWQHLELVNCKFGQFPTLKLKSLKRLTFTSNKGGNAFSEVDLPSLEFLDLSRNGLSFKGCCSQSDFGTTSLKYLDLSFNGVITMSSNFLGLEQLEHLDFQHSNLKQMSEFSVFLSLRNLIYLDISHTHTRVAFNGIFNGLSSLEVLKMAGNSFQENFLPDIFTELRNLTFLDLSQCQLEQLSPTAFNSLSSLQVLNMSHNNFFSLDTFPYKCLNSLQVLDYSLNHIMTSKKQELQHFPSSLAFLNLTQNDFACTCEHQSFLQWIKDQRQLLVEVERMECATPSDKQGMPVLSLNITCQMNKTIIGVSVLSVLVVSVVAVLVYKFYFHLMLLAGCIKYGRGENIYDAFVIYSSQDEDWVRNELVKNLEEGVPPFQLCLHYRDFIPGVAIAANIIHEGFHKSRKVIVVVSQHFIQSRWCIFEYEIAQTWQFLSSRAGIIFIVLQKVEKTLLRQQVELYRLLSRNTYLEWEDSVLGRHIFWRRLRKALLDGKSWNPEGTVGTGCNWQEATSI

Row | Molecule | LPS-dependent NF-κB activation conferred by soluble protein ([1]; LPS 24 h) | LPS-mediated NF-κB activation on transient expression [1] | Effect on LPS-induced NF-κB activation mediated by MD-2/TLR4 ([1]; MD-2s plasmid co-transfected with CD14, TLR4, wild-type MD-2 and reporter, LPS 250 ng/ml 5 h) | Effect of soluble form on LPS-induced NF-κB activation ([1]; supernatants with constant MD-2 and increasing MD-2s on TLR4/NF-κB reporter cells, LPS 24 h) | LPS-dependent IL-8 secretion conferred by soluble protein ([2]; culture supernatants added to HEK293 TLR4 reporter cells) | LPS-mediated IL-8 secretion on transient expression ([2]; plasmid transfected with CD14 into HEK293 TLR4/NF-κB reporter cells) | Cellular distribution with respect to TLR4 [3] | Percentage of GR-1+CD11b+ cells in the lung following LPS challenge ([4]; flow cytometry, control without MD-2s expression 66.7%) [%] | IL-6 concentration in bronchoalveolar lavage fluid (BALF) [4, 5] | KC concentration in the lung homogenate [4, 5] | Recruitment of polymorphonuclear leukocytes (PMN) into the lung [4, 5]
1 | MD-2: full-length human wild-type MD-2, co-receptor of TLR4 [reference compound] | strongly activated NF-κB | activated NF-κB |  |  |  |  |  |  |  |  | 
2 | MD-2s: alternatively spliced isoform of human MD-2 lacking exon 2, with D38G substitution; expressed and secreted protein sequences in Table 1 (protein, listed as Homo sapiens) chain 1: MLPFLFFSTLFSSIFTEAQKQYWVCNSSDASISYTYCGRDLKQLYFNLYITVNTMNLPKRKEVICRGSDDDYSFCRALKGETVNTTISFSFKGIKFSKGKYKCVVEAISGSPEEMLFCLEFVILHQPNSN chain 2: EAQKQYWVCNSSDASISYTYCGRDLKQLYFNLYITVNTMNLPKRKEVICRGSDDDYSFCRALKGETVNTTISFSFKGIKFSKGKYKCVVEAISGSPEEMLFCLEFVILHQPNSN | could not confer LPS responsiveness | unable to induce LPS-mediated NF-κB activation | significantly inhibited | inhibits NF-κB activation | could not confer LPS responsiveness | unable to induce | same cellular distribution | 26.1 | reduced | reduced | reduced
